Data as given in the supplement of paper PMC9732359.
± gives the uncertainty stated by the source.

Test: protein stability index of a GFP-peptide fusion (yeast GPS) (PSI 1-4); higher = more stable; sorted into four equal gates, so the index is relative within each strain
Procedure, shortened: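 Peptides tiling yeast proteins in 17-residue segments were fused downstream of GFP, with Cherry expressed from the same plasmid. As a pooled library in yeast, mid-log cultures grown in leucine-free medium were sorted into four equal gates by GFP/Cherry fluorescence ratio. Gate plasmids were PCR-amplified and Illumina-sequenced, and barcodes linked reads to strains. Each peptide received a protein stability index equal to the sum of each gate's read frequency times its gate number.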

| Sequence | protein stability index (doa10∆) | protein stability index (pdr5∆) | protein stability index (san1∆) | protein stability index (ubr1∆) |
| --- | --- | --- | --- | --- |
| TNLKMKRKWSYVLYAKI [RRP43] | 1.71 ± 0.058 | 2.37 ± 0.042 | 1.75 ± 0.16 | 2.09 ± 0.15 |
| IYVHVRRSTPFSKIAEY [ESC2] | 2.16 ± 0.053 | 2.33 ± 0.049 | 2.52 ± 0.05 | 2.52 ± 0.047 |
| FFEMLISKSLTFSQESG [RRI2] | 2.12 ± 0.082 | 1.45 ± 0.059 | 1.25 ± 0.12 | 1.66 ± 0.13 |
| IQEANSVDMSALKDPQT [RIP1] | – | 3.43 ± 0.21 | – | 3.26 ± 0.077 |
| RVERSSRSTDNFHNSKK [RRI1] | 3.31 ± 0.076 | 3.25 ± 0.078 | 2.99 ± 0.082 | 3.08 ± 0.057 |
| NRHNLLNDVVSFLFSAI [SWI1] | 2.19 ± 0.077 | 2.58 ± 0.05 | 2.4 ± 0.067 | 2.4 ± 0.043 |
| LTALGKEKEKEREEAEK [MED2] | 1.3 ± 0.23 | 1.43 ± 0.16 | – | 1.32 ± 0.15 |
| VVGTETRVNAQLESYEY [RRI1] | 2.72 ± 0.18 | 1.65 ± 0.11 | 3.33 ± 0.1 | 2.26 ± 0.1 |
| TSMNGVHNTVAAGNASS [SNF5] | 2.73 ± 0.043 | 2.74 ± 0.037 | 2.76 ± 0.05 | 2.76 ± 0.051 |
| IELLSYLVEAPWNDDYP [YML103C/NUP188] | 1.68 ± 0.093 | 2.04 ± 0.15 | – | 2.49 ± 0.17 |
| TGNNNNIATQQNMQQSL [GAL11] | 2.06 ± 0.048 | 2.49 ± 0.077 | 2.55 ± 0.11 | 2.59 ± 0.052 |
| AYPAAREQFLNAQDIDH [FAS1] | 3.13 ± 0.082 | 3.15 ± 0.11 | 2.84 ± 0.11 | 3.21 ± 0.054 |
| TSPVTGATEKRKCAKPF [CSL4] | 1.89 ± 0.23 | 1.27 ± 0.15 | – | – |
| EVYTLVDSQGLPYNWDA [ARP7] | 3.31 ± 0.2 | 3.56 ± 0.2 | 2.85 ± 0.14 | 3.22 ± 0.15 |
| TRRFVNVTLVNGKRRMN [RPS30A] | 1.67 ± 0.055 | 1.51 ± 0.038 | 1.73 ± 0.084 | 2.37 ± 0.038 |
| FLFQNINFERIDEVFSW [GRR1] | 2.36 ± 0.059 | 2.36 ± 0.071 | 2.47 ± 0.056 | 2.28 ± 0.048 |
| FKVYEPLLLVGLDKFSN [RPS16A] | 1.72 ± 0.058 | 1.96 ± 0.055 | 1.85 ± 0.074 | 2.14 ± 0.043 |
| RGVTKVGFGESNFTSII [SMC1] | 3.56 ± 0.19 | 3.33 ± 0.11 | 3.09 ± 0.15 | 3.08 ± 0.08 |
| KVLARQQLQVLARYLKM [FAS2] | 1.41 ± 0.081 | 1.47 ± 0.083 | 1.75 ± 0.15 | 2.1 ± 0.12 |
| EDNYNPKMQWSLQDNSA [RPN4] | 3.21 ± 0.11 | 3.3 ± 0.13 | 3.22 ± 0.087 | 3.07 ± 0.068 |
| CRELHNKHLTTLVEIFL [SSN3] | 1.59 ± 0.04 | 2.03 ± 0.045 | 1.82 ± 0.065 | 1.7 ± 0.04 |

| Sequence | protein stability index (doa10∆) | protein stability index (pdr5∆) | protein stability index (san1∆) | protein stability index (ubr1∆) |
| --- | --- | --- | --- | --- |
| QASDPSKKKKNIKKKDT [RPC53] | 3.26 ± 0.17 | 3.5 ± 0.13 | 3.2 ± 0.088 | 3.3 ± 0.21 |
| TSLVANENDKIYLLFQS [YDL116W/NUP84] | 2.37 ± 0.058 | 2.59 ± 0.05 | 2.42 ± 0.054 | 2.79 ± 0.035 |
| RLDILDPALLRPGRIDR [RPT6] | 2.79 ± 0.22 | – | 2.65 ± 0.12 | – |
| NNNNTIDESMPDTAIDS [GRR1] | 2.78 ± 0.061 | 3.02 ± 0.052 | 2.81 ± 0.061 | 3 ± 0.044 |
| ILTPESQLKKSKAQQKT [RPL7A] | 3.02 ± 0.078 | 3.02 ± 0.12 | 2.98 ± 0.12 | 2.98 ± 0.056 |
| RYVAGVQQRYTQSGGVR [PRE6] | 2.84 ± 0.23 | – | – | – |
| YGDGNGKGDNDNGLGPL [SWI3] | 3.46 ± 0.15 | 3.13 ± 0.3 | 3.31 ± 0.073 | 3 ± 0.1 |
| VTLFQMAILLLYNDADV [CDC53] | 2.03 ± 0.057 | 1.79 ± 0.051 | 1.67 ± 0.099 | 1.96 ± 0.041 |
| DDMVEYEDGTPATTSQM [CYT1] | – | 2.76 ± 0.14 | 3.02 ± 0.19 | – |
| QPKAPRAPKVIHGQDFQ [ISW2] | 2.88 ± 0.089 | 3.02 ± 0.097 | 2.94 ± 0.05 | 3.19 ± 0.058 |
| VFVKKHHELIKVKHDSQ [SSN2] | 1.32 ± 0.07 | 1.29 ± 0.053 | 1.18 ± 0.095 | 1.35 ± 0.051 |
| ESFESYHNLTTHNSYEK [RPN6] | 3.19 ± 0.068 | 3.17 ± 0.065 | 2.84 ± 0.075 | 3.28 ± 0.044 |
| TDSWESFFVSVRKAITV [FAS1] | 2.76 ± 0.27 | 2.4 ± 0.17 | – | – |
| THIAESAKEIAKASGCD [MCD1] | 3.16 ± 0.14 | 3.4 ± 0.19 | 3.15 ± 0.049 | 3.34 ± 0.075 |
| DVHLLESKVYHKLRNLA [RPN6] | 1.95 ± 0.069 | 2.33 ± 0.086 | 2.17 ± 0.14 | 2.13 ± 0.11 |
| NSAVNNAISNTQDDFTT [SRP54] | 3.42 ± 0.1 | 3.07 ± 0.07 | 3.04 ± 0.064 | 3.31 ± 0.045 |
| GEMERDCMIAHGAASFL [RPB2] | 3.04 ± 0.13 | 3.08 ± 0.085 | 3.04 ± 0.073 | 2.76 ± 0.089 |
| IREIDVTGGKKALVLFV [RPS7B] | 1.3 ± 0.085 | 1.5 ± 0.1 | 1.3 ± 0.21 | 1.23 ± 0.063 |
| PYLVANVVEVMDMNEIE [RPT5] | 2.86 ± 0.093 | 2.19 ± 0.063 | 1.91 ± 0.077 | 2.32 ± 0.069 |
| VGPSEQNFAEEDDSSNS [REC8] | 2.56 ± 0.15 | 2.62 ± 0.11 | – | – |
| SDSIEKIVEIDRHIGCA [PUP2] | – | 3.11 ± 0.24 | 2.74 ± 0.13 | 2.82 ± 0.19 |

| Sequence | protein stability index (doa10∆) | protein stability index (pdr5∆) | protein stability index (san1∆) | protein stability index (ubr1∆) |
| --- | --- | --- | --- | --- |
| TKFKVRGSSSLYTLVIN [RPL38] | 2.08 ± 0.074 | 1.32 ± 0.09 | 1.55 ± 0.13 | 2.13 ± 0.09 |
| LKIHQSHLVVPYCPIAS [YMR129W/POM152] | 1.25 ± 0.063 | 1.29 ± 0.061 | 1.24 ± 0.12 | 1.28 ± 0.035 |
| VVLSFSGLNADSRILIE [PRE6] | 2.87 ± 0.15 | 3.26 ± 0.2 | 3.19 ± 0.072 | 3.3 ± 0.13 |
| QKKRVVDPFTRKEWFDI [RPS1A] | 2.77 ± 0.15 | 3.1 ± 0.18 | 3.03 ± 0.08 | 3.13 ± 0.13 |
| LELRNSVMDDILEMMPE [PRP8] | 3.53 ± 0.12 | 3.26 ± 0.12 | 3.15 ± 0.09 | 3.37 ± 0.068 |
| SEKKDTDGADENVQIGE [SRB4] | 2.65 ± 0.12 | 3.31 ± 0.17 | – | 3.06 ± 0.18 |
| SKTENVRRLEAQRNALN [RPT6] | 2.65 ± 0.17 | 2.91 ± 0.18 | – | 2.88 ± 0.074 |
| NESWKSSFEKFNDSQAI [SRP72] | 2.96 ± 0.055 | 2.96 ± 0.059 | 2.79 ± 0.043 | 3.02 ± 0.037 |
| EIVRDILHTKESSNEAK [SIR4] | 2.75 ± 0.067 | 2.96 ± 0.074 | 2.82 ± 0.06 | 2.75 ± 0.059 |
| QTATQLLERGRLRKRVT [SMC2] | 3.04 ± 0.11 | 3.04 ± 0.083 | 2.92 ± 0.064 | 2.42 ± 0.078 |
| NVQTQYREAPVIYRGPE [RET1] | 2.53 ± 0.095 | 2.97 ± 0.069 | 3.36 ± 0.042 | 3.14 ± 0.051 |
| EFFVQVLTHESLHRQQQ [DLS1] | 2.99 ± 0.19 | 2.91 ± 0.14 | 2.81 ± 0.12 | 2.92 ± 0.13 |
| FERLVPRGTAKLIIHRK [SMC3] | 3.01 ± 0.12 | 2.98 ± 0.12 | – | 2.86 ± 0.03 |
| ASELDESKDSIQDLIVK [SMC3] | 3.3 ± 0.085 | 3.04 ± 0.12 | 3.18 ± 0.13 | 3.33 ± 0.14 |
| RQLAGAIGYEPLSLTHR [DIS3] | 2.94 ± 0.057 | 2.87 ± 0.057 | 2.86 ± 0.07 | 2.93 ± 0.041 |
| DRLSLQDRQQLLPLVVS [ECM29] | 2 ± 0.051 | 2.06 ± 0.044 | 1.64 ± 0.08 | 1.84 ± 0.037 |
| KDRISHEVVQDDSFSLL [PCI8] | 3.19 ± 0.082 | 3.46 ± 0.071 | 3.19 ± 0.056 | 3.05 ± 0.075 |
| VIAKLNHNQFECKGCDN [RPB2] | 2.93 ± 0.054 | 3.14 ± 0.067 | 3 ± 0.05 | 3.01 ± 0.097 |
| KKASEISVSSRSDREYP [SRP14] | 3.19 ± 0.096 | 3.1 ± 0.12 | 2.99 ± 0.1 | 2.87 ± 0.082 |
| LDRELLKPSMSVALHRH [RPT3] | 2.98 ± 0.082 | 2.71 ± 0.1 | 3.07 ± 0.071 | 2.7 ± 0.16 |
| QAELLQLAVKIINKVLD [YJL039C/NUP192] | 2.33 ± 0.25 | 3.09 ± 0.091 | 2.74 ± 0.13 | – |
